Results on two substances are retold here after patent publication US20170349905A1.

The target in experiment [1] is second domain of Cas9 protein (half domain comprising the C-terminus, beginning with the QG amino acids of the SGQG linker; NLS and HA tag at its C-terminus) (UniProt Q99ZW2). In words: cell-based or functional assay.
For experiment [2], the target named is second domain of Cas9 protein delivered by adeno-associated virus vector (splicing acceptor linked t (UniProt Q99ZW2)). Briefly: cell-based or functional assay.
second domain of Cas9 protein delivered by adeno-associated virus vector (splicing acceptor linked t, sequence (Q99ZW2 716-1368 limits assumed): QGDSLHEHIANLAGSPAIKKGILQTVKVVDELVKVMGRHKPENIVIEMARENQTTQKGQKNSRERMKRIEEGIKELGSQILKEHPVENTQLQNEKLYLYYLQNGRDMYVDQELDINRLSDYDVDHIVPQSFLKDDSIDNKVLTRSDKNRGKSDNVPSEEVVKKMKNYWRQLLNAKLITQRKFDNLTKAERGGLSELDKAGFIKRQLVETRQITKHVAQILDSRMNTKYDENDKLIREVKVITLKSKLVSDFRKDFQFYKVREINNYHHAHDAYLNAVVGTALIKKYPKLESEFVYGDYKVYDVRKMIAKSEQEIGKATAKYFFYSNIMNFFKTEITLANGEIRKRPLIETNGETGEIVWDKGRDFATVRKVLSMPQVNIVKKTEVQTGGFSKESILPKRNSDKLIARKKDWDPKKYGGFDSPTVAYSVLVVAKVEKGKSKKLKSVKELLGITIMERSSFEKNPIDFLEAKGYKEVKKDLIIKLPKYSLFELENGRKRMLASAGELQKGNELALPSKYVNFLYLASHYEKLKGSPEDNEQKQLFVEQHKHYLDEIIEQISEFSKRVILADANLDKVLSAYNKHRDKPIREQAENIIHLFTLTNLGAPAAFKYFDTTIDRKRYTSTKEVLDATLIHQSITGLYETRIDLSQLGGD

second domain of Cas9 protein (half domain comprising the C-terminus, beginning with the QG amino acids of the SGQG linker; NLS and HA tag at its C-terminus), sequence (Q99ZW2 716-1368): as the sequence (Q99ZW2 716-1368 limits assumed) above

In experiment [1], “first domain of Cas9 protein (half domain comprising the N-terminus, ending in the SG amino acids of the SGQG linker; HA tag and NLS at its N-terminus) (from UniProt Q99ZW2 1-715) (enzyme)” returned an Indel frequency in the CCR5 gene (next-generation sequencing) of 20.3%, an Indel frequency in the DMD gene (next-generation sequencing) of 23.8% and an Indel frequency in the HPRT gene (next-generation sequencing) of 27.1%.

In experiment [2], “first domain of Cas9 protein delivered by adeno-associated virus vector (splicing donor linked to the C-terminal region) (from UniProt Q99ZW2 1-715) (enzyme)” returned a target sequence cleavage rate (DMD exon 51) in Hela cells co-infected with AAV, next-generation sequencing of 5%.
